Columns and labels:
[1] = biological target: Sti1 G193C–G309C N435A, labelled with ATTO 532 and ATTO 647 (S. cerevisiae) (UniProt P15705)
[2] = biological target: Sti1 G193C–G309C, labelled with ATTO 532 and ATTO 647 (S. cerevisiae) (UniProt P15705)
[3] = biological target: Sti1 G193C–G309C N39A, labelled with ATTO 532 and ATTO 647 (S. cerevisiae) (UniProt P15705)
Chain of Sti1 G193C–G309C N39A, labelled with ATTO 532 and ATTO 647 (S. cerevisiae) (P15705 whole entry N39A/G193C/G309C): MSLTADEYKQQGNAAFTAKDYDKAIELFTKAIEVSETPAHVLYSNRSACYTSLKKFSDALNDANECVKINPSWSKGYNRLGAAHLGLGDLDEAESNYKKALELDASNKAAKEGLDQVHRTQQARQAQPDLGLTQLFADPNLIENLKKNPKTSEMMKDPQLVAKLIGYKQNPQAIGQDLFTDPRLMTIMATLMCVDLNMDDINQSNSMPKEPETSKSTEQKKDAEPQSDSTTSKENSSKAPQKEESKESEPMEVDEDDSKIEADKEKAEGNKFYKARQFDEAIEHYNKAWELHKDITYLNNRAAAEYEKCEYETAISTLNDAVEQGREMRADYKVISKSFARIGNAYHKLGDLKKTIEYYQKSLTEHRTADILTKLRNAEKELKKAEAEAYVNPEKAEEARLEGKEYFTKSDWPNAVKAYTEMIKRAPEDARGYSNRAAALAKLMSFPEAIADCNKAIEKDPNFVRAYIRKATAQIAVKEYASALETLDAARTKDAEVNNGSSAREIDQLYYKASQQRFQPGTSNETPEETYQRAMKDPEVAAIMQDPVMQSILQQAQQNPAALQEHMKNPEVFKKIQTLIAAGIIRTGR

Chain of yHsp70 (Ssa1), P10591 1-642 (natural protein; ATTO 532 and ATTO 647 on the two cysteines (labelled stochastically)) (P10591 whole entry): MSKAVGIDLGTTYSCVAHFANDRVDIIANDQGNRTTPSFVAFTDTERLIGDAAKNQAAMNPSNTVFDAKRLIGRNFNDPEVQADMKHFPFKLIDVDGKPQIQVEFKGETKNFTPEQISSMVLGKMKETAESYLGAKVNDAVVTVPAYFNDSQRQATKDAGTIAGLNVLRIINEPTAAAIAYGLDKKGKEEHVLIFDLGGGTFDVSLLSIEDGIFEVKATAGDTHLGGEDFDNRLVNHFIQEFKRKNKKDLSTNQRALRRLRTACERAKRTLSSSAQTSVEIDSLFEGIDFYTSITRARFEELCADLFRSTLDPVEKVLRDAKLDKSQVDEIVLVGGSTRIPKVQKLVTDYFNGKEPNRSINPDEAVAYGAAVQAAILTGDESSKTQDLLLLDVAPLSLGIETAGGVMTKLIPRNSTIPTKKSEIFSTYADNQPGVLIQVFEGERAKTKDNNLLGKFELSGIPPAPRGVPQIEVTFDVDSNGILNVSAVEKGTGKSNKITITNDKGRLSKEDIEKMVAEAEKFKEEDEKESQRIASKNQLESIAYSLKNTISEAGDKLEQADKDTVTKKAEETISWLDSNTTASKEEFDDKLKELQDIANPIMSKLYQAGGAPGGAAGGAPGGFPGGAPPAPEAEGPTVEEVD
Chain of Sti1 G193C–G309C N435A, labelled with ATTO 532 and ATTO 647 (S. cerevisiae) (P15705 whole entry G193C/G309C/N435A): as the sequence (P15705 whole entry N39A/G193C/G309C) above, with A39N, N435A counted along it
Chain of Sti1 G193C–G309C, labelled with ATTO 532 and ATTO 647 (S. cerevisiae) (P15705 whole entry G193C/G309C): as the sequence (P15705 whole entry N39A/G193C/G309C) above, with A39N counted along it

Substance	dynamic traces (%) in surface-based spFRET (TIRF) of Sti1 encapsulated in vesicles with 25 μM Hsp70; 17 without Hsp [1] [%]	dynamic traces (%) in surface-based spFRET (TIRF) of Sti1 encapsulated in vesicles with 25 μM Hsp70; 17 without Hsp [2] [%]	dynamic traces (%) in surface-based spFRET (TIRF) of Sti1 encapsulated in vesicles with 25 μM Hsp70; 13 without Hsp [3] [%]	dynamic traces (%) in surface-based spFRET (TIRF) of Sti1 encapsulated in vesicles with 10 μM Hsp90; 17 without Hsp [1] [%]	dynamic traces (%) in surface-based spFRET (TIRF) of Sti1 encapsulated in vesicles with 10 μM Hsp90; 17 without Hsp [2] [%]	dynamic traces (%) in surface-based spFRET (TIRF) of Sti1 encapsulated in vesicles with 10 μM Hsp90; 13 without Hsp [3] [%]
yHsp70 (Ssa1), P10591 1-642 (natural protein; ATTO 532 and ATTO 647 on the two cysteines (labelled stochastically))	15	28	27	–	–	–
yHsp90 (Hsp82), P02829 1-709 (natural protein; ATTO 532 and ATTO 647 on the two cysteines (labelled stochastically))	–	–	–	26	31	27

Source: publication PMC4403447
